Test results reported in patent US20090203616A1.
No end group written: not given here.

Target: α9α10 subtype of the nicotinic acetylcholine receptor (nAChR) (rat) (UniProt P43144)
Experiment: cell-based or functional assay

α9α10 subtype of the nicotinic acetylcholine receptor (nAChR) (rat), sequence (P43144 26-479, chain 1 of 2): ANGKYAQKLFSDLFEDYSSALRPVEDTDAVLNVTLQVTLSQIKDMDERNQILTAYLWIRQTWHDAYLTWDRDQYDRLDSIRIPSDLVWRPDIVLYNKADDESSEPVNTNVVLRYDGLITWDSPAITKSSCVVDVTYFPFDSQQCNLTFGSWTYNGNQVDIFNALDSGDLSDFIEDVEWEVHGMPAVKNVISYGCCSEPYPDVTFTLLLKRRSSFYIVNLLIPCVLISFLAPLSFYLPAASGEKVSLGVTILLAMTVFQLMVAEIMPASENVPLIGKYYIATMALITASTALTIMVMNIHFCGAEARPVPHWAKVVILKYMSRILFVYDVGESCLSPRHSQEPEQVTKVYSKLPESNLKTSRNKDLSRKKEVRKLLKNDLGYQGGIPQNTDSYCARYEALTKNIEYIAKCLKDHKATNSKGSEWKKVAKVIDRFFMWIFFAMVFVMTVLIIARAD
α9α10 subtype of the nicotinic acetylcholine receptor (nAChR) (rat), sequence (Q9JLB5 25-447, chain 2 of 2, further chain): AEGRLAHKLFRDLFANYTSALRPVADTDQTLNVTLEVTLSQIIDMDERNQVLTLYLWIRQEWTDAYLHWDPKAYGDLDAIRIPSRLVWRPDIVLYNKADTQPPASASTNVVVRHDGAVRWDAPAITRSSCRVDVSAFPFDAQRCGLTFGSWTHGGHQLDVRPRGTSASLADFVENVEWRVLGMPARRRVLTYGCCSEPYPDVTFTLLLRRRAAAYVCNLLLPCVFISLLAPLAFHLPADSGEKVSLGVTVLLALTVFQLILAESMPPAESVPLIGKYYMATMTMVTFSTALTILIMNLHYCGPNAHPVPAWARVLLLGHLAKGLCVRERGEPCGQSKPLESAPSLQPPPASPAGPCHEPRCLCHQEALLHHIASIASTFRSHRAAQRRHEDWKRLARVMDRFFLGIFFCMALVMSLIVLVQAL

In the case of GCCSDPRCRYRC (not fully specified (C-terminus); ends and bridges not checked) [RgIA-Cys-amide], the IC50 (activity on α9α10 nAChR, oocytes as in Example 1) is reported as 7.8 nM.
